Source: publication PMC2812701, “RelB and RelE of Escherichia coli Form a Tight Complex That Represses Transcription via the Ribbon–Helix–Helix Motif in RelB” (Journal of Molecular Biology, 2009)
Changes are numbered by the printed parent chain. Numbers in names are those of the source. Where “and” joins values, the source holds several entries; their conditions need not be identical. Equal values may be shown once.

What was measured:
[1] = biological target: T1, HMK-RelB (E. coli) (UniProt P0C079)
T1 sequence (chain, 32P label on the N-terminal HMK-tag (RRASV)): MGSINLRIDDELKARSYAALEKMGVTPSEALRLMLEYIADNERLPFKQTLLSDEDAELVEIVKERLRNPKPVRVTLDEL

[2] = biological target: RelB-Cys (E. coli) (UniProt P0C079); assay: SPR; Biacore 3000, CM5 chip; RelB-Cys immobilised by ligand thiol coupling; Lon-His6 injected at 200 nM with or without MgCl2 (8 mM) and ATP (2 mM), and at 12.5-100 nM (monomer) for kinetics; 60 ul/min; HBS-EP pH 7.4; apparent Kd
[3] = biological target: RelB-Cys (E. coli) (UniProt P0C079); assay: SPR; Biacore 3000, CM5 chip; about 40 RU RelB-Cys immobilised by ligand thiol coupling; His6-RelE injected at 12.5-100 nM, 60 ul/min; HBS-EP (10 mM Hepes, 150 mM NaCl, 0.005% Tween 20, 3 mM EDTA, pH 7.4); 1:1 Langmuir fit; apparent Kd (koff/kon)
[4] = tested on: RelB S28L;His6-RelE (Escherichia coli;Escherichia coli); assay: EMSA; conditions: EMSA and footprint binding buffer as in an earlier paper (not given); footprint binding volume 35 ul, radical cleavage 37 C 1 min; native PAGE for EMSA
[5] = tested on: RelB R7A;His6-RelE (Escherichia coli;Escherichia coli); assay: EMSA; conditions: EMSA and footprint binding buffer as in an earlier paper (not given); footprint binding volume 35 ul, radical cleavage 37 C 1 min; native PAGE for EMSA
[6] = tested on: RelB K13A;His6-RelE (Escherichia coli;Escherichia coli); assay: EMSA; conditions: EMSA and footprint binding buffer as in an earlier paper (not given); footprint binding volume 35 ul, radical cleavage 37 C 1 min; native PAGE for EMSA
[7] = biological target: T2, His6-RelE (E. coli, UniProt P0C077 1-95); assay: amino acid analysis of the co-purified complex; purified RelB·RelE complex preformed in vivo (Table S2); conditions: partners not purified
T2 construct: toxin RelE (mRNA interferase) of the relBE locus, Escherichia coli, wild type; also called co-repressor RelE; mRNA interferase RelE; source: also in cells, co-expressed with RelB; not shown: His6, N-terminal, kept
T2 sequence (looked up): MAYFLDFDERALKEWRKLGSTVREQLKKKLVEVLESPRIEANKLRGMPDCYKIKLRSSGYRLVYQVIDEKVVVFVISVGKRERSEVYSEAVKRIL

[8] = biological target: T2, His6-RelE; assay: other fluorescence titration; tryptophan fluorescence of His6-RelE (0.35 uM) titrated with RelB; 25 °C; phosphate-buffered saline pH 7.4; excitation 295 nm, emission about 330 nm; conditions: both partners purified
[9] = biological target: the molecule itself; assay: cross-linking; chemical cross-linking of WT RelB and the mutated variants with BS3 [bis(sulfosuccinimidyl) suberate] (Fig. S1)

Lon-His6 (from UniProt P0A9M0 1-784) (enzyme)
in vitro degradation of 32P-labelled HMK-RelB (0.13 uM) by Lon (0.6 uM) at 37 °C, ATP- and Mg2+-dependent, time course up to 120 min; in vitro half-life of HMK-RelB [1]: > 1 h | Kd [2]: < 2 nM | koff [2]: 0.000234 s⁻¹

His6-RelE (from UniProt P0C077 1-95) (natural protein)
Kd [3]: 0.33 nM | in vitro half-life of the complex [3]: 1.17 h | koff [3]: 0.000166 s⁻¹ | kon [3]: 501000 M⁻¹ s⁻¹

relO166 (Cy5)
K half [4]: > 1250 nM | K half [5]: > 1250 nM | K half [6]: > 1250 nM

B1: RelB (wild type) (natural protein, E. coli, UniProt P0C079 1-79, looked up)
chain: T1 sequence (chain, 32P label on the N-terminal HMK-tag (RRASV))
notes: antitoxin RelB of the relBE locus, Escherichia coli, wild type; also called WT RelB; antitoxin RelB; source: also in cells, co-expressed with His6-RelE
stoichiometry N [7]: 2 RelB/RelE | stoichiometry N [8]: ~2 RelB/RelE | stoichiometry N [9]: 2 and 4

B2: RelB^S28R (natural protein, E. coli, UniProt P0C079 1-79, looked up)
chain: T1 sequence (chain, 32P label on the N-terminal HMK-tag (RRASV)) with S28R
notes: antitoxin RelB, Escherichia coli, with S28R; also called RelB RHH variant S28R; source: also in cells, co-expressed with His6-RelE
stoichiometry N [9]: 2 and 4

B3: RelB^R7A (natural protein, E. coli, UniProt P0C079 1-79, looked up)
chain: T1 sequence (chain, 32P label on the N-terminal HMK-tag (RRASV)) with R7A
notes: antitoxin RelB, Escherichia coli, with R7A; also called RelB RHH variant R7A; source: also in cells, co-expressed with His6-RelE
binding result [9]: binds

B4: RelB^I8A (natural protein, E. coli, UniProt P0C079 1-79, looked up)
chain: T1 sequence (chain, 32P label on the N-terminal HMK-tag (RRASV)) with I8A
notes: antitoxin RelB, Escherichia coli, with I8A; also called RelB RHH variant I8A; source: also in cells, co-expressed with His6-RelE
stoichiometry N [9]: 2 and 4

B5: RelB^K13A (natural protein, E. coli, UniProt P0C079 1-79, looked up)
chain: T1 sequence (chain, 32P label on the N-terminal HMK-tag (RRASV)) with K13A
notes: antitoxin RelB, Escherichia coli, with K13A; also called RelB RHH variant K13A; source: also in cells, co-expressed with His6-RelE
binding result [9]: binds

B6: RelB^S28L (natural protein, E. coli, UniProt P0C079 1-79, looked up)
chain: T1 sequence (chain, 32P label on the N-terminal HMK-tag (RRASV)) with S28L
notes: antitoxin RelB, Escherichia coli, with S28L; also called RelB RHH variant S28L; source: also in cells, co-expressed with His6-RelE
stoichiometry N [9]: 2 and 4
